Results taken from article PMC10272835, “Exploration of T cell immune responses by expression of a dominant-negative SHP1 and SHP2” (Frontiers in Immunology, 2023).

Tested on: SupT1-GD2 cells
Assay: Effect of inhibitory ligand expression on GD2 CAR cytotoxicity
Format: cell-based
Conditions: ligand expressed on SupT1-GD2, E:T 1:4 and 1:8, 6 days
Experimental: Transduced T cells were depleted of CD56 cells using the EasySep Human CD56 positive selection kit (Stemcell Technologies; 17855) and rested for 24 hours. Transduced cells were co-cultured with target cells at the indicated effector: target (E:T) ratios with target cells remaining constant at the indicated number of target cells/co-culture. At the end of the co-culture period target cells were enumerated by flow cytometry and cytotoxicity calculated as a percentage of the number of target cells recovered from co-cultures with non-transduced (NT) T cells.
Figure 3 Interaction of dSHP2 with immunoinhibitory T cell receptors. (A-E) Binding of dSHP2 to phosphorylated peptides derived from the endodomains of immunoinhibitory T cell receptors. Plates were coated with phosphorylated or non-phosphorylated peptide at the indicated concentration and the purified, His-tagged SH2 domains of dSHP2 were allowed to bind overnight. Binding was measured through detection of the His tag. (F) Effect of inhibitory ligand expression on target cells on CAR T cytotoxicity. […] Supernatants were harvested from these co-cultures and levels of IFNγ measured by ELISA (I). […] Statistical significance was measured by two-way ANOVA. […]

B1: HVEM: inhibitory ligand of BTLA expressed on SupT1-GD2 cells (protein, UniProt Q92956 39-283, looked up)
Tumor necrosis factor …: LPSCKEDEYPVGSECCPKCSPGYRVKEACGELTGTVCEPCPPGTYIAHLNGLSKCLQCQMCDPAMGLRASRNCSRTENAVCGCSPGHFCIVQDGDHCAACRAYATSSPGQRVQKGGTESQDTLCQNCPPGTFSPNGTLEECQHQTKCSWLVTKAGAGTSSSHWVWWFLSGSLVIVIVCSTVGLIICVKRRKPRGDVVKVIVSVQRKRQEAEGEATVIEALQAPPDVTTVAVEETIPSFTGRSPNH
In the case of B1, the “effect of target cell ligand expression on CAR T cytotoxicity” value is reported as “mild enhancement of CAR T cytotoxicity”.

B2: CD155: inhibitory ligand of TIGIT expressed on SupT1-GD2 cells (protein, UniProt P15151 21-417, looked up)
Poliovirus receptor: WPPPGTGDVVVQAPTQVPGFLGDSVTLPCYLQVPNMEVTHVSQLTWARHGESGSMAVFHQTQGPSYSESKRLEFVAARLGAELRNASLRMFGLRVEDEGNYTCLFVTFPQGSRSVDIWLRVLAKPQNTAEVQKVQLTGEPVPMARCVSTGGRPPAQITWHSDLGGMPNTSQVPGFLSGTVTVTSLWILVPSSQVDGKNVTCKVEHESFEKPQLLTVNLTVYYPPEVSISGYDNNWYLGQNEATLTCDARSNPEPTGYNWSTTMGPLPPFAVAQGAQLLIRPVDKPINTTLICNVTNALGARQAELTVQVKEGPPSEHSGISRNAIIFLVLGILVFLILLGIGIYFYWSKCSREVLWHCHLCPSSTEHASASANGHVSYSAVSRENSSSQDPQTEGTR
With B2 the “effect of target cell ligand expression on CAR T cytotoxicity” value was “mild enhancement of CAR T cytotoxicity”.
